The labels stand for the following.
B1: Flag-tagged GNL3 (Flag-GNL3), wild type [human] / RAD51, endogenous [human (endogenous in U2OS and HeLa)] (parent)
chain 1: MKRPKLKKASKRMTCHKRYKIQKKVREHHRKLRKEAKKRGHKKPRKDPGVPNSAPFKEALLREAELRKQRLEELKQQQKLDRQKELEKKRKLETNPDIKPSNVEPMEKEFGLCKTENKAKSGKQNSKKLYCQELKKVIEASDVVLEVLDARDPLGCRCPQVEEAIVQSGQKKLVLILNKSDLVPKENLESWLNYLKKELPTVVFRASTKPKDKGKITKRVKAKKNAAPFRSEVCFGKEGLWKLLGGFQETCSKAIRVGVIGFPNVGKSSIINSLKQEQMCNVGVSMGLTRSMQVVPLDKQITIIDSPSFIVSPLNSSSALALRSPASIEVVKPMEAASAILSQADARQVVLKYTVPGYRNSLEFFTVLAQRRGMHQKGGIPNVEGAAKLLWSEWTGASLAYYCHPPTSWTPPPYFNESIVVDMKSGFNLEELEKNNAQSIRAIKGPHLANSILFQSSGLTNGIIEEKDIHEELPKRKERKQEEREDDKDSDQETVDEEVDENSSGMFAAEETGEALSEETTAGEQSTRSFILDKIIEEDDAYDFSTDYV
chain 2: MAMQMQLEANADTSVEEESFGPQPISRLEQCGINANDVKKLEEAGFHTVEAVAYAPKKELINIKGISEAKADKILAEAAKLVPMGFTTATEFHQRRSEIIQITTGSKELDKLLQGGIETGSITEMFGEFRTGKTQICHTLAVTCQLPIDRGGGEGKAMYIDTEGTFRPERLLAVAERYGLSGSDVLDNVAYARAFNTDHQTQLLYQASAMMVESRYALLIVDSATALYRTDYSGRGELSARQMHLARFLRMLLRLADEFGVAVVITNQVVAQVDGAAMFAADPKKPIGGNIIAHASTTRLYLRKGRGETRICKIYDSPCLPEAEAMFAINADGVGDAKD

The first assay covers variants of B1. The assay can be described thus: co-IP (anti-Flag IP, IB RAD51, band quantification). Particulars: with RAD51, endogenous [human (endogenous in U2OS and HeLa)]; U2OS cells; 20 μM ETO, 0 h; read off a plot.
Consider chain 1 MKRPKLKKASKRMTCHKRYKIQKKVREHHRKLRKEAKKRGHKKPRKDPGVPNSAPFKEALLREAELRKQRLEELKQQQKLDRQKELEKKRKLETNPDIKPSNVEPMEKEFGLCKTENKAKSGKQNSKKLYCQELKKVIEASDVVLEVLDARDPLGCRCPQVEEAIVQSGQKKLVLILNKSDLVPKENLESWLNYLRKELPTVVFRASTKPKDKGKITKRVKAKKNAAPFRSEVCFGKEGLWKLLGGFQETCSKAIRVGVIGFPNVGKSSIINSLKQEQMCNVGVSMGLTRSMQVVPLDKQITIIDSPSFIVSPLNSSSALALRSPASIEVVKPMEAASAILSQADARQVVLKYTVPGYRNSLEFFTVLAQRRGMHQKGGIPNVEGAAKLLWSEWTGASLAYYCHPPTSWTPPPYFNESIVVDMKSGFNLEELEKNNAQSIRAIKGPHLANSILFQSSGLTNGIIEEKDIHEELPKRKERKQEEREDDKDSDQETVDEEVDENSSGMFAAEETGEALSEETTAGEQSTRSFILDKIIEEDDAYDFSTDYV [chain 1 K196R], for which the response (relative level) came out at 0.17.

The same assay, now with this note: with RAD51, endogenous [human (endogenous in U2OS and HeLa)]; U2OS cells; 20 μM ETO, 2 h; read off a plot.
chain 1 MKRPKLKKASKRMTCHKRYKIQKKVREHHRKLRKEAKKRGHKKPRKDPGVPNSAPFKEALLREAELRKQRLEELKQQQKLDRQKELEKKRKLETNPDIKPSNVEPMEKEFGLCKTENKAKSGKQNSKKLYCQELKKVIEASDVVLEVLDARDPLGCRCPQVEEAIVQSGQKKLVLILNKSDLVPKENLESWLNYLRKELPTVVFRASTKPKDKGKITKRVKAKKNAAPFRSEVCFGKEGLWKLLGGFQETCSKAIRVGVIGFPNVGKSSIINSLKQEQMCNVGVSMGLTRSMQVVPLDKQITIIDSPSFIVSPLNSSSALALRSPASIEVVKPMEAASAILSQADARQVVLKYTVPGYRNSLEFFTVLAQRRGMHQKGGIPNVEGAAKLLWSEWTGASLAYYCHPPTSWTPPPYFNESIVVDMKSGFNLEELEKNNAQSIRAIKGPHLANSILFQSSGLTNGIIEEKDIHEELPKRKERKQEEREDDKDSDQETVDEEVDENSSGMFAAEETGEALSEETTAGEQSTRSFILDKIIEEDDAYDFSTDYV [chain 1 K196R]: the response (relative level) is 0.52.

The same assay, now with this note: with RAD51, endogenous [human (endogenous in U2OS and HeLa)]; U2OS cells; 20 μM ETO, 8 h; read off a plot.
For chain 1 MKRPKLKKASKRMTCHKRYKIQKKVREHHRKLRKEAKKRGHKKPRKDPGVPNSAPFKEALLREAELRKQRLEELKQQQKLDRQKELEKKRKLETNPDIKPSNVEPMEKEFGLCKTENKAKSGKQNSKKLYCQELKKVIEASDVVLEVLDARDPLGCRCPQVEEAIVQSGQKKLVLILNKSDLVPKENLESWLNYLRKELPTVVFRASTKPKDKGKITKRVKAKKNAAPFRSEVCFGKEGLWKLLGGFQETCSKAIRVGVIGFPNVGKSSIINSLKQEQMCNVGVSMGLTRSMQVVPLDKQITIIDSPSFIVSPLNSSSALALRSPASIEVVKPMEAASAILSQADARQVVLKYTVPGYRNSLEFFTVLAQRRGMHQKGGIPNVEGAAKLLWSEWTGASLAYYCHPPTSWTPPPYFNESIVVDMKSGFNLEELEKNNAQSIRAIKGPHLANSILFQSSGLTNGIIEEKDIHEELPKRKERKQEEREDDKDSDQETVDEEVDENSSGMFAAEETGEALSEETTAGEQSTRSFILDKIIEEDDAYDFSTDYV [chain 1 K196R], the response (relative level) was determined as 0.31.

(Values after publication PMC13598120.)
